Laboratory results published in patent US20040068761.

Test system: FLP recombinase
Assay: cell_activity
Details: excision of y+ donor flanked by FRTs (33,668/33,790 w+ progeny lost y+), with I-SceI co-expressed in Drosophila

Substance: FRT (FLP recombination target) from yeast 2 micron plasmid
- activity: 99.6%
